The values below are quoted from earlier work in article PMC7887631.

As usually defined, the pKd is −log10 of the Kd, conventionally taken in molar units.

For this data set, the target named is Prion protein (PrPC) (UniProt P04156).

pKd: −log10 of the molar value.

With STI1 (from UniProt P31948), the pKd is 7.00.
